Residue numbers refer to the chain shown, from its start. Names and notes keep the numbering of the source.

T1: biotinylated-MADCAM-1 antigen (human, UniProt Q13477 19-317, limits assumed, biotinylated (site not stated))
T1 construct: The BLI paragraph says only 'biotinylated-MADCAM-1 antigen'; also called mucosal addressin cell adhesion molecule 1
T1 sequence (looked up): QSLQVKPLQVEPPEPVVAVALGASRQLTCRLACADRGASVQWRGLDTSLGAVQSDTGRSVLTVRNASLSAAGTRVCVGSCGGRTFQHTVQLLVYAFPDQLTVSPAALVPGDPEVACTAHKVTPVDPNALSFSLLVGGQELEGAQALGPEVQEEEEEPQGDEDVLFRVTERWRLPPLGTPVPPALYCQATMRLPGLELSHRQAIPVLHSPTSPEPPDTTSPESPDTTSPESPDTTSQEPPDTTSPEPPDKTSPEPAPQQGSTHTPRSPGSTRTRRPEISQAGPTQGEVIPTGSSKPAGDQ

B1: MAdCAM1 scFv 32.6 (scFv)
scFv: QVQLVESGGGVVQPGRSLRLSCAASGFSFSSSYWICWVRQAPGKGLEWVACIYGGSSGATYYANWAKGRFTISRDNSTNTLFLQMNSLRAEDTAVYYCARSGSTTSGGVYRWYFNLWGQGTLVTVSSGGGGSGGGGSGGGGSDIQMTQSPSSLSASVGDRVTITCQASENIYNLLAWYQQKPGKAPKLLIYDASNLETGVPSRFSGSGSGTDFTFTISSLQPEDIATYYCQFTYYGGTYESAFGGGTKVEIK
notes: Humanized rabbit-derived scFv, VH-(G4S)3-VL
B2: MAdCAM1 scFv 32.3 (scFv)
scFv: EVQLLESGGGLVQPGGSLRLSCAASGFSFSSSYWICWVRQAPGKGLEWVSCIYGGSSGATYYANWAKGRFTISRDNSKNTLYLQMNSLRAEDTAVYYCARSGSTTSGGVYRWYFNLWGQGTLVTVSSGGGGSGGGGSGGGGSDIQMTQSPSSLSASVGDRVTITCQASENIYNLLAWYQQKPGKVPKLLIYDASTLQSGVPSRFSGSGSGTDFTLTISSLQPEDVATYYCQFTYYGGTYESAFGGGTKVEIK
notes: as for B1
B3: MAdCAM1 scFv 32.7 (scFv)
scFv: B2 scFv with L5V, D75H
notes: as for B1
B4: MAdCAM1 scFv 32.4 (scFv)
scFv: B2 scFv with V185A, T195N, Q197E, S198T, L215F, V225I
notes: as for B1
B5: MAdCAM1 scFv 32.5 (scFv)
scFv: B1 scFv with A185V, N195T, E197Q, T198S, F215L, I225V
notes: as for B1
B6: MAdCAM1 scFv 32.8 (scFv)
scFv: B1 scFv with Q1E, V11L, R16G, A50S, D75H, T78K, F82Y
notes: as for B1
B7: MAdCAM1 scFv 10.7 (scFv)
scFv: EVQLLESGGGLVQPGGSLRLSCAASGIDFSGYHYICWVRQAPGKGLEWVSCIYTVSSGIWYATWAKGRFTISRDNSKNTLYLQMNSLRAEDTAVYYCARDDADVSGYWFDLWGQGTLVTVSSGGGGSGGGGSGGGGSDIQMTQSPSSLSASVGDRVTITCQASQSISNLLAWYQQKPGKAPKLLIYKASTLASGVPSRFSGSGSGTDFTFTISSLQPEDIATYYCQQGITNNGIDHGFGGGTKVEIK
notes: as for B1
B8: MAdCAM1 scFv 10.1 (scFv)
scFv: B7 scFv with E1Q, L5V, L11V, G16R, S50A, K77T, Y81F
notes: as for B1
B9: MAdCAM1 scFv 10.3 (scFv)
scFv: B7 scFv with L5V, Q13K, S76A, T79S
notes: as for B1
B10: MAdCAM1 scFv 10.2 (scFv)
scFv: QVQLVESGGGVVQPGRSLRLSCAASGIDFSGYHYICWVRQAPGKGLEWVACIYTVSSGIWYATWAKGRFTISRDNSTNTLFLQMNSLRAEDTAVYYCARDDADVSGYWFDLWGQGTLVTVSSGGGGSGGGGSGGGGSAIQLTQSPSSLSASVGDRVTITCQASQSISNLLAWYQQKPGKAPKLLIYKASTLASGVPSRFSGSGSGTDFTLTISSLQPEDFATYYCQQGITNNGIDHGFGGGTKVEIK
notes: as for B1
B11: MAdCAM1 scFv 10.8 (scFv)
scFv: B7 scFv with D138A, M141L, F210L, I220F
notes: as for B1
B12: MAdCAM1 scFv 17.7 (scFv)
scFv: EVQLVESGGGLVKPGGSLRLSCAASGFSFSSTYYMCWVRQAPGKGLEWVSCIYTGSGNTDYASWAKGRFTISRDNAKNSLYLQMNSLRAEDTAVYYCARGGIVDSYFTYFDLWGQGTLVTVSSGGGGSGGGGSGGGGSDIQMTQSPSTLSASVGDRVTITCQASESIFSNLAWYQQKPGKAPKLLIYWASTLASGVPSRFSGSGSGTEFTLTISSLQPDDFATYYCQSYVYSSSSSNDFGGGTKVEIK
notes: as for B1
B13: MAdCAM1 scFv 17.3 (scFv)
scFv: B12 scFv with E1Q, V5L, V38I
notes: as for B1
B14: MAdCAM1 scFv 17.1 (scFv)
scFv: B12 scFv with K13Q, D74H, A76S, S79T
notes: as for B1
B15: MAdCAM1 scFv 17.5 (scFv)
scFv: B12 scFv with E1Q, L11V, K13Q, G16R, S50A, A76S, K77T, S79T, Y81F
notes: as for B1
B16: MAdCAM1 scFv 2.1 (scFv)
scFv: QVQLLESGGGLVKPGGSLRLSCAASGFSFSSGYYMCWIRQAPGKGLEWVSCIYADSSYTYYASWAKGRFTISRDNAKNSLYLQMNSLRAEDTAVYYCARSNGDYFYGMDLWGQGTLVTVSSGGGGSGGGGSGGGGSDIQMTQSPSSLSASVGDRVTITCQASQSINSWLSWYQQKPGKAPKLLIYRASTLASGVPSRFSGSGSGTDFTFTISSLQPEDIATYYCQSNYYSTSTAFGGGTKVEIK
notes: as for B1
B17: MAdCAM1 scFv 2.2 (scFv)
scFv: B16 scFv with D137A, F209L, I219F
notes: as for B1
B18: MAdCAM1 scFv 8.2 (scFv)
scFv: EVQLVESGGGLVQPGGSLRLSCAASGFTLSSSYYMYWVRQAPGKGLEWVSVIYAGDGNTYYASWAKGRFTISRDNSKNTLYLQMNSLRAEDTAVYYCARGYVGYGYAIDLWGQGTLVTVSSGGGGSGGGGSGGGGSAIQLTQSPSSLSASVGDRVTITCQASQSIYSSLAWYQQKPGKAPKLLIYYASILPSGVPSRFSGSGSGTDFTLTISSLQPEDFATYYCQATTYDSTYPNAFGGGTKVEIK
notes: as for B1
B19: MAdCAM1 scFv 8.8 (scFv)
scFv: B18 scFv with S7T, V12I
notes: as for B1
B20: MAdCAM1 scFv 8.6 (scFv)
scFv: B18 scFv with E1Q, L11V, G16R, S50A
notes: as for B1
B21: MAdCAM1 scFv 8.5 (scFv)
scFv: B18 scFv with E1Q, L11V, G16R, S50A, A137D, L140M, S146T, D206E, E217D
notes: as for B1
B22: MAdCAM1 scFv 8.7 (scFv)
scFv: B18 scFv with S7T, V12I, A137D, L140M, S146T, D206E, E217D
notes: as for B1
B23: MAdCAM1 scFv 8.4 (scFv)
scFv: B18 scFv with V5L, V51A
notes: as for B1
B24: MAdCAM1 scFv 8.1 (scFv)
scFv: B18 scFv with A137D, L140M, S146T, D206E, E217D
notes: as for B1

This assay addresses T1, biotinylated-MADCAM-1 antigen. Kind of assay: BLI, biotinylated MADCAM-1 on streptavidin biosensors, scFv titrated, global 1:1 fit. The procedure: Binding affinity (KD) of MADCAM-1 scFv antibodies from Table 2 was measured using biolayer interferometry (See also FIG. 6). Streptavidin biosensors were loaded for 5 seconds with 10 Tg/mL biotinylated-MADCAM-1 antigen followed by acquisition of the baseline signal in phosphate buffer saline supplemented with bovine serum albumin and sodium azide. For the association step loaded probes were incubated for 250 seconds with a titration of anti-MADCAM-1 scFv antibodies at concentrations generally between 0 nM and 2 TM. This was followed by a dissociation step in buffer lacking anti-MADCAM-1 scFv for 250 seconds. Experimental data was normalized to a reference probe and high-frequency noise was removed by Savitzky-Golay filtering. On and off-rate constants were determined using a globally fitted 1:1 binding model.
In turn, B1 gave a Kd of 6.7 nM, a koff of 0.00219 s⁻¹ and a kon of 327000 M⁻¹ s⁻¹.

In turn, B2 registered a Kd of 12.1 nM, a koff of 0.00491 s⁻¹ and a kon of 407000 M⁻¹ s⁻¹.

In turn, B3 returned a Kd of 23.8 nM, a koff of 0.00991 s⁻¹ and a kon of 416000 M⁻¹ s⁻¹.

Regarding B4, the Kd stood at 18.7 nM, the koff came out at 0.0108 s⁻¹ and the kon came out at 577000 M⁻¹ s⁻¹.

In the case of B5, binding was put at a Kd of 5.4 nM, the dissociation rate constant (koff) was 0.00146 s⁻¹ and the kon was 272000 M⁻¹ s⁻¹.

In the case of B6, the Kd amounted to 15.5 nM, the koff was determined as 0.0083 s⁻¹ and the kon stood at 534000 M⁻¹ s⁻¹.

With B7, the Kd is 45.4 nM, the koff came to 0.00108 s⁻¹ and the kon was 23800 M⁻¹ s⁻¹.

B8 registered a Kd of 102 nM, an off-rate constant (koff) of 0.00125 s⁻¹ and a kon of 12200 M⁻¹ s⁻¹.

For the molecule B9, the affinity, expressed as Kd, was 98.3 nM; the koff came out at 0.00114 s⁻¹; the kon turned out to be 11600 M⁻¹ s⁻¹.

The molecule B10 gave a Kd of 1260 nM, a koff of 0.00646 s⁻¹ and a kon of 5130 M⁻¹ s⁻¹.

In turn, B11 yielded a Kd of 928 nM, a koff of 0.00259 s⁻¹ and a kon of 2790 M⁻¹ s⁻¹.

Consider B12, for which binding was characterised by a dissociation constant (Kd) of 1.8 nM, the koff turned out to be 0.000537 s⁻¹ and the kon amounted to 300000 M⁻¹ s⁻¹.

B13 returned an equilibrium dissociation constant (Kd) of 2.9 nM, an off-rate constant (koff) of 0.000868 s⁻¹ and a kon of 304000 M⁻¹ s⁻¹.

For the molecule B14, the affinity, expressed as Kd, was 2.3 nM; the koff stood at 0.000568 s⁻¹; the on-rate (kon) came to 247000 M⁻¹ s⁻¹.

Turning to B15, the Kd amounted to 3.7 nM, the koff is 0.000967 s⁻¹ and the kon is 258000 M⁻¹ s⁻¹.

For the molecule B16, the dissociation constant Kd amounted to 85 nM, the koff was 0.00602 s⁻¹ and the kon was 70800 M⁻¹ s⁻¹.

As to B17, the affinity, expressed as Kd, was 329 nM; the koff amounted to 0.0167 s⁻¹; the kon is 50800 M⁻¹ s⁻¹.

B18 yielded a Kd of 78 nM, a koff of 0.00295 s⁻¹ and a kon of 37800 M⁻¹ s⁻¹.

In turn, B19 displayed a Kd of 311 nM, a koff of 0.00696 s⁻¹ and a kon of 22400 M⁻¹ s⁻¹.

The molecule B20 registered a Kd of 84.8 nM, a koff of 0.00218 s⁻¹ and a kon of 25700 M⁻¹ s⁻¹.

As for B21, the Kd was 114 nM, the koff turned out to be 0.00158 s⁻¹ and the kon amounted to 13800 M⁻¹ s⁻¹.

As for B22, the affinity, expressed as Kd, was 258 nM; the koff was determined as 0.00428 s⁻¹; the kon was found to be 16600 M⁻¹ s⁻¹.

In turn, B23 returned a Kd of 30.9 nM, a koff of 0.000393 s⁻¹ and a kon of 12700 M⁻¹ s⁻¹.

In turn, B24 showed a Kd of 89.9 nM, a koff of 0.00186 s⁻¹ and a kon of 20700 M⁻¹ s⁻¹.

(Values after US20240158459A1 (KYVERNA THERAPEUTICS, published 2024).)
